Data as given in patent US20260258115A1 (MAPP BIOPHARMACEUTICAL, published 2026).

What was measured:
[1] = target: RSV postfusion F (postF), F ΔFP (Respiratory Syncytial Virus, UniProt P03420 26-513); test: BLI, IgG on anti-human IgG sensor
RSV F on RSV-A2 virus = RSV F on RSV-A2 virus (Respiratory Syncytial Virus (RSV-A2), UniProt P03420 26-574); test: cell-based or functional assay
[2] = target: RSV prefusion F (preF), DS-Cav1 (Respiratory Syncytial Virus, UniProt P03420 26-513); test: BLI, IgG on anti-human IgG sensor, 100 nM antigen, 1:1 fit
[3] = target: T1, RSV postfusion F, subtype B (postF trimer) (Respiratory syncytial virus subtype B, UniProt P13843 26-513); test: BLI, IgG apparent affinity
T1 construct: also called Postfusion subtype B

[4] = target: T2, RSV postfusion F, subtype A (postF, F ΔFP trimer) (Respiratory syncytial virus subtype A, UniProt P03420 26-513); test: BLI, IgG apparent affinity
T2 construct: also called Postfusion subtype A

[5] = target: RSV prefusion F, subtype A (preF, DS-Cav1 trimer) (Respiratory syncytial virus subtype A, UniProt P03420 26-513); test: BLI, IgG apparent affinity
[6] = target: RSV F on recombinant mKate-RSV B 18537 virus (Respiratory syncytial virus B 18537, UniProt P13843 26-574); test: cell-based or functional assay

Row | Binder | binding result [1] | Neutralization IC50 (RSV subtype A) (RSV F on RSV-A2 virus) | Kd [2] | also measured
1 | ADI-41516 (antibody, V domains shown) VH: EVQLLESGPRLVKPSETLSLTCIVSGGFISYDYWSWIRQPAGKGLEWIGRIYAGGIPKYNPSLKSRVTMSLDMSNNQFSLRLKSVTAADSAVYYCARAEPCSGDCFLGENPFDSWGQGTLVTVSS VL: QSVLTQPPSASGTPGQRVTISCSGSSSSIGSNYVYWYQQLPGTAPKLLIHKDNERPSGVPDRFSGSKSGTSASLAISGLRSEDEGDYSCAAWDDSLSGWVFGGGTKLTVL | no binding | 0.08 µg/mL | 0.414 nM | 
2 | ADI-41521 (antibody, V domains shown) VH: EVQLVESGGGLVQPGRSLRLSCAASGFTFDDFAMDWVRQVPGKGLEWVSGISWNGVSKDYAGSVKGRFTISRDNAKNSLYLQMNSLRAEDTALYFCAKARRDVYNWGDAFDIWGQGTMVTVSS VL: DIRLTQSPGTLSLSPGERATLSCRASQPLNSNYLAWYRQKPGQAPRLLIFDASSRATGVPDRISGSGSGTDFTLTVSRLEPEDIAVYYCQQYASSPWTFGLGTKVEIK | no binding | > 25 µg/mL | 1.68 nM | 
3 | ADI-43646 (antibody, V domains shown) VH: EMQLMQSGGVVVQPGGSLRLSCAASGFTFDDYAMHWVRQAPGKGLEWVSLISWDGGSTYYADSVKGRFTISRDNSKNSLYLQMNSLRAEDTALYYCAKDFDPLVVPAAMCFDYWGQGTLVTVSS VL: QSVLIQPASVSGSPGQSITISCTGTSSDVGGYNYVSWYQQHPGKAPKLMIYDVSNRPSGVSNRFSGSKSGNTASLTISGLQAEDEADYYCSSYTSSSTLYVFGTGTKLTVL | no binding | > 25 µg/mL | 5.34 nM | 
4 | ADI-43644 (antibody, V domains shown) VH: not shown VL: DIVLTQSPATLSLSPGERATLSCRASQSVSSYLAWYQQKPGQAPRLLIYDASNRATGIPARFSGSGSGTDFTLTISSLEPEDFAVYYCQQRSNWPPGFTFGGGTKVEIK | no binding | > 25 µg/mL | 29.3 nM | 
5 | ADI-41501 (antibody, V domains shown, also called Ab 780; Antibody Number 780) VH: QVQLVQSGAEVKKPGSSVKVSCKASGGIFSDFAISWVRQAPGQGLEWMGGIITIIGTPEYAQKFQGRVRITADESTTTVFMELSRLTSEDTAVYYCARDSRYGSGWYWDHWGQGTLVTVSS VL: not shown | no binding | > 25 µg/mL | 3.21 nM | 
6 | ADI-41523 (antibody, V domains shown) VH: QVQLVQSGAEVKKPGESLRISCKGSGDTFSNYWIGWVRQMPGKGLEWMGIIYPGDSDTRYSPSFQGQVTFSADKSISTAYLQWSSLKASDTAMYYCVRQVGGVVVTDTDNYYYGMDVWGQGTTVTVSS VL: DIRLTQSPSSLSASVGDRVTITCRASQSIRSYLNWYQQKPGKAPKLLIYSASSLQSGVPSRFSGSGSGTDFTLTISSLQPEDFATYYCQQSHSTPLTFGPGTKVDIK | no binding | > 25 µg/mL | 2.91 nM | 
7 | ADI-21087 (antibody, V domains shown) VH: EVQLVESGGGLVQPGGSLRLSCAASGFTFSGYEMNWVRQAPGKGLEWLSYISSSGGIIYYADSVKGRFTISRDNARNSLFLQMNSLRAEDTAVYSCARARLLDGFDIWGQGTMVTVSS VL: not shown |  |  |  | Kd [3]: 0.476 nM; Kd [4]: 0.545 nM; binding result [5]: no binding
8 | ADI-21073 (antibody, V domains shown) VH: EVQLVESGGGLVRPGRSLRLSCAASGFTFSMFSMNWVRQAPGKGLEWLAYIGGSGSTIDYANSVSGRFTISRDNAKNSLYLQMNSLRDEDTAVYYCARIGLQTYNSHSSSSSPARAFDVWGQGTTVTVSS VL: DIVLTQSPSSLSASVGDRVTITCRASQSIGRFLNWYQQKPGKAPKLLIYAASSLESGVPSRFSGSGSGTQFSLTISSLQPEDFTTYYCQQSYSTPTTFGGGTKVDIK |  |  |  | Neut IC50 (ug/ml) subtype B [6]: 11.2 µg/mL; Kd [3]: 0.675 nM; Kd [4]: 0.58 nM; Kd [5]: 4.06 nM
9 | ADI-41476 (antibody, V domains shown) VH: EVQLLESGGGLVQPGGSLRLSCATSGFRFTRYWMHWVRQAPGKGLEWVARINFDGTTTNYADSVKGRFTVSRDNAKNTLYLQINSLRAEDTAVYFCARDQTFLEWLPFESWGQGTLVTVSS VL: QTVVTQEPSFSVSPGGTVTLTCGLTSGSVSTSYYPSWYQQTPGQAPRTLIYNTKTRFSGVPDRFSGSILGNKAALTITGAQADDESDYYCVLYMSGGMVFGGGTKLTVL | no binding | > 25 µg/mL | 3.86 nM | 
10 | ADI-41457 (antibody, V domains shown, also called Ab 741; Antibody Number 741) VH: EVQLVESGGGLVRPGGSLRVSCAASGFTFIRYDMHWVRQAPGKGLEWVSGIGTAGDTYYAASVQGRFTISRENAKNSLYLQMSNLRPGDTAVYYCAGSMAATGIDQWGQGTLVTVSS VL: EIVMTQSPLTLPVTPGEPASISCRSSQSLLHSNGFTYLDWFLQKPGQSPQLLIFLGSNRASGVPDRFSGSGSGTDFTLKISRVEAEDVGIYYCMQALQTPYTFGQGTKVEIK | no binding | > 25 µg/mL | 3.33 nM | 
11 | ADI-43645 (antibody, V domains shown, also called Ab 826; Antibody Number 826) VH: QVQLVQSGAEVKKPGSSVKVSCKASGGTFSSYAISWVRQAPGQGLEWMGGIIPIFGTANYAQKFQGRVTITADESTSTAYMELSSLRSEDTAVYYCARGWRGGGMTGSYYYYGMDVWGQGTTVTVSS VL: DIQVTQTPSTLSASVGDRVTITCRASQSISSWLAWYQQKPGKAPKLLIYKASSLESGVPSRFSGSGSGTEFTLTISSLQPDDFATYYCQQHRGTFGQGTKVDIK | no binding | > 25 µg/mL | 8.7 nM | 
12 | ADI-21071 (antibody, V domains shown) VH: EVQLVESGGGVVQPGKSLRLSCAVSGFTFSDHDMHWVRQAPGKGLEWVAAIWSDRTTKYYGDFVKGRFTISRDNSKNTLYLQMNSLRAEDTAVYYCARGQIYKSGGYYLVHLDHWGQGTLVTVSS VL: DIQVTQSPSSLSASVGDRVTITCRASQSIASYLNWYQQKPGKAPNLLIYAASNLQSEVPSRFSGSGSGTDFTLTISGLQPEDFATYYCQQSYNIRLLTFGGGTKVEIK |  |  |  | Kd [3]: 1.38 nM; Kd [4]: 0.216 nM; Kd [5]: 1.17 nM
13 | ADI-21090 (antibody, V domains shown) VH: EVQLLESGGGLVKPGGSLRLSCAASGFTSGFTFSDFYMSWIRLTPGKGLEWISYISTHSTSTNYADSVRGRFIISRDDARNSLFLQMNSLRAEDTAVYYCAGYYYGSGSYFFDHWGQGTLVTVSS VL: ETTLTQSPATLSVSPGERATLSCRASQSVSSNVAWYQQKPGQAPRLLIYSASSRDTGIPVRFSGSGSGTEFTLSISSLQSEDFAVYYCQQYSDWPTFGQGTKVEIK |  |  |  | Kd [3]: 0.175 nM; Kd [4]: 0.176 nM; Kd [5]: 1.17 nM
14 | ADI-41491 (antibody, V domains shown) VH: EVQLLESGGGLVQPGGSLRLSCAASGFTFSSYSMNWVRQAPGKGLEWVSYMSSDRSAIYYSDSVKDRFTISRDNAKNSLYLQMHSLRAEDTAVYYCARRYCSSTSCYRGLGYYYGMDVWGQGTTVTVSS VL: SYELTQPPSVSVAPGQTARITCGGSNIGNKDVHWYQQKPGQAPVLVVYDDSDRPSGIPERFAGSNSGNTATLTISRVEAGDEADYYCQVWHSAGDHVVFGGGTKLTVL | no binding | > 25 µg/mL | 0.439 nM | 
15 | ADI-21070 (antibody, V domains shown) VH: EVQLVESGGGLVQPGGSLRLSCAASGFTFSRYAMGWVRQAPGKGLEWVSTISDSGGSTFYADSVEGRFTIARDSSKNTLSLHMNSLRAEDTAIYYCAREAYSSSWYSGGWFDRWGQGTLVTVSS VL: not shown |  |  |  | Neut IC50 (ug/ml) subtype B [6]: 2.38 µg/mL; binding result [3]: no binding; binding result [4]: no binding; Kd [5]: 5.37 nM
16 | ADI-41517 (antibody, V domains shown) VH: QVQLVQSGGGLVQPGGSLRLACAASGFTLSGYAMNWVRQAPGKGLEWVSSISGSGGSTYYADSVKGRFTTSRDNSKNTVFLHMNSLRAEDTAIYYCATVPWETGPFDHWGQGTLVTVSS VL: QSVLTQPPSVSGAPGQRVTISCTGSSSNIGAGYAVHWYQQLPGTAPKLLIHGTTNRPSGVPDRFSGSKSGTSASLAITGLQAEDEADYYCQSYDSRLSGYVFGTGTKLTVL | no binding | 0.02 µg/mL | 0.501 nM | 
17 | ADI-41489 (antibody, V domains shown, also called Ab 770; Antibody Number 770) VH: EVQLVESGGGVVQPGRSLRLSCAASGFNFHNYAFHWVRQAPGKGLDWVAVTSYDGSSAFYADSVKGRFTISRDNSKKILYLQMTSLRAEDTALYYCARGSSSWSGDYFDYWGQGILVTVSS VL: DIVMTQSPVTLSVSPGERATLSCRASQSVGSNLAWYQQKHGQTPRLLIYDASTRATSIPARFSGSGSGTEFTLTISSLQSEDFAVYYCQQYNKWPSYTFGQGTKVEIK | no binding | > 25 µg/mL | 88 nM | 
18 | ADI-41524 (antibody, V domains shown) VH: EVQLVESGGGLVQPGRSLRLSCTGSGFTFGDYAISWFRQAPGKGLEWVGFIRSKPYGGTTEYAASVKGTFTISRDDSKSIAYLQMNSLKTGDTAVYFCTRGIWGITMIVPWSDPWGQGTLVTVSS VL: DIVMTQTPLSLPVTPGEPASISCRSSQSLLHSNGFNYLAWYLQKPGQSPQLLIYLNSNRASGVPDRFSGSGSGTDFTLKISRVEAEDVGVYYCMQALQTPLTFGPGTKLEIK | no binding | > 25 µg/mL | 3.18 nM | 
